Ends that are not written are not given here.

Data set [1] deals with PSMA dimer (Homo sapiens, UniProt Q04609). The data set can be described thus: Phage-based ELISA, binding to PSMA dimer. How it is done:
In a phage-based ELISA, specific wells of a 96-well microtiter plate (Nunc Maxisorp) were coated with 100 μL/well of a solution of PSMA (5.56 or 11.1 nM) monomer or dimer protein diluted in PBS. The plate was incubated for 1 h on a shaker at room temperature. The coating solution was removed, and the wells were blocked with 320 μL/well of 0.2% w/v solution of BSA in PBS for 30 min, and washed three times with 300 μL/well of wash buffer PT (0.05% TWEEN-20 in PBS). […] The wells on the ELISA plate were then incubated with the phage samples (100 μL/well) for 1 h. The wells were washed five times with PT and then incubated with horseradish-peroxidase-conjugated anti-M13 antibody (100 μL/well, 1:5000 dilution in PBT) for 30 min. The wells were washed three times with PT, and two times with PBS. […] Following an appropriate incubation time, HRP activity was measured spectrophotometrically at 450 nm using a microtiter plate reader (Bio-Tek).
Phage-based wrapping ELISA: Phage (5 nM in 225 μL) and 2 μL of the purified cycloaddition reaction product, KCS-1/2 (308.7 μM) in water: acetonitrile (60:40), were mixed and serially diluted in PBT. […] Levels of phage binding were quantified as described above.
A general note: An ELISA detects its analyte on a solid surface through an enzyme-linked reagent.

Data set [2] addresses PSMA (Homo sapiens, UniProt Q04609). The data set can be described thus: Electrochemical impedance biosensing with virus-PEDOT films. It counts as binding. The note with it: PBF-TWEEN. How it is done:
Biosensing with Virus-PEDOT Films. To explore whether these wrapped virus particles could be exploited to create virus-electrode biosensors with a higher sensitivity for PSMA, films of PEDOT were prepared on gold electrodes by electropolymerization in the presence of phage-2 (FIG. 28). […] SEM imaging confirms incorporation of phage into the bioaffinity matrix; both filament-like and less extended features having dimensions consistent with phage integrated as rope-like bundles into the polymer at various angles to the film (FIGS. 4B-4C) were observed. The KCS-1 wrapper was then applied in vitro simply by exposing the resultant phage-2 film for a short time to an aqueous solution of the wrapper. For the biosensing measurements, only the highest affinity ligand combination of phage-2 wrapped with KCS-1 was used, and it was studied in comparison to phage-2 films.
EIS To Quantify PSMA Binding. […] The real component of the impedance, R, in particular, increases upon PSMA binding. […] The films incorporating phage-2 wrapped with KCS-1 provide higher sensitivity for PSMA detection than films incorporating unwrapped phage-2 (FIG. 4F). For example, the relative impedance change, ΔR/Ro, at each concentration of PSMA is 3-fold higher. […]

Data set [3] can be described thus: Solubility in water. The note with it: previous studies. It counts as physicochemical.

Sequence of PSMA dimer (Q04609 44-750 limits assumed): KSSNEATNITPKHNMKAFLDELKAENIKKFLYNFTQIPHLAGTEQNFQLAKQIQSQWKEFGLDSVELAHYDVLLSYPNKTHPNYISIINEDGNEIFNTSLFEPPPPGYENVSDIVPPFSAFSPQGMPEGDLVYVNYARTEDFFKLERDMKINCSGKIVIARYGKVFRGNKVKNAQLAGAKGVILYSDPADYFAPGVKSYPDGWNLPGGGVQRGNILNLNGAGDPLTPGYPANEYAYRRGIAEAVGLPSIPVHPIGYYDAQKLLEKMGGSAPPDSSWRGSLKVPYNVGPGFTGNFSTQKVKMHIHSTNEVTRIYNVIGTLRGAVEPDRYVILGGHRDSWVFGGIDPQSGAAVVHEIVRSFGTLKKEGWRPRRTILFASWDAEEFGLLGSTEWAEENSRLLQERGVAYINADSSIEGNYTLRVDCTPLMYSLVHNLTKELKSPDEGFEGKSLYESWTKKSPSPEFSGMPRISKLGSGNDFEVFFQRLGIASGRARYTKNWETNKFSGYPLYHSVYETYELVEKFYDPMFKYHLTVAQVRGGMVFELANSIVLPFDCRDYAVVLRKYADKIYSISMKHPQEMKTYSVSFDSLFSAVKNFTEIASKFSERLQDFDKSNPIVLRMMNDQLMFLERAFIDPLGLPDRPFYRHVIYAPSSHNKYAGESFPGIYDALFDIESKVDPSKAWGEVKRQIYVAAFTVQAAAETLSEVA
Sequence of PSMA (Q04609 44-750): as the sequence (Q04609 44-750 limits assumed) above

Regarding “KCS-1: chemically synthesized wrapper: K14 oligolysine click-linked to PSMA ligand 1 (peptide 1 KKKKKKKKKKKKKK; peptide 2 KKKCALCEFLG; cysteine pairing not given here; also: K14 oligolysine click-linked to PSMA ligand 1)”, in data set [1] (2.7 μM KCS-1, FIG. 7), the “increase in apparent affinity to PSMA versus other wrapper concentrations” value is reported as ~15%. Moreover, the “binding to PSMA by PEDOT film (negative controls)” value in data set [2] is listed as “no significant binding to PSMA”.

Consider “peptide 1: PSMA-binding peptide ligand, amino acid sequence CALCEFLG (SEQ ID NO: 1)”, for which the “relative binding affinity to PSMA dimer” value in data set [1] (phage-based ELISA) is recorded as “much lower apparent affinity for PSMA than peptide 2”. Moreover, in data set [3], the solubility in water result is “limited solubility in water”.
